Experimental data published in patent US20170152307A1.
Each block holds one substance with its values, some of them ahead of it.

What was measured:
tau 194-212 (human) = experiment: peptide ELISA
[1] = target: ptau 194-212 (pS202, pT205) (human); experiment: peptide ELISA, biotinylated peptide on streptavidin plate, IgG titrated (Example 6)
[2] = target: ptau 194-212 (pS202, pT205) (human); experiment: peptide ELISA, 1 ug/mL IgG
ptau 188-206 (human) = experiment: peptide ELISA
ptau 188-205 (human) = experiment: peptide ELISA
ptau 189-206 (human) = experiment: peptide ELISA
ptau 192-215 (human) = experiment: peptide ELISA
ptau 189-209 (human) = experiment: peptide ELISA
tau 186-253 (human) = experiment: peptide ELISA
tau 190-209 (human) = experiment: peptide ELISA
ptau 192-209 (human) = experiment: peptide ELISA
ptau 192-217 (human) = experiment: peptide ELISA
[3] = target: ptau 187-212 (A211) (human); experiment: alanine-scan peptide ELISA, 1 ug/mL IgG
[4] = target: ptau 187-212 (A199) (human); experiment: alanine-scan peptide ELISA, 1 ug/mL IgG
[5] = target: ptau 187-212 (A194) (human); experiment: alanine-scan peptide ELISA, 1 ug/mL IgG
[6] = target: ptau 187-212 (A196) (human); experiment: alanine-scan peptide ELISA, 1 ug/mL IgG
[7] = target: ptau 187-212 (A198) (human); experiment: alanine-scan peptide ELISA, 1 ug/mL IgG
[8] = target: ptau 187-212 (A189) (human); experiment: alanine-scan peptide ELISA, 1 ug/mL IgG
[9] = target: ptau 187-212 (A205) (human); experiment: alanine-scan peptide ELISA, 1 ug/mL IgG
[10] = target: ptau 187-212 (A195) (human); experiment: alanine-scan peptide ELISA, 1 ug/mL IgG
[11] = target: ptau 187-212 (A210) (human); experiment: alanine-scan peptide ELISA, 1 ug/mL IgG
[12] = target: ptau 187-212 (A209) (human); experiment: alanine-scan peptide ELISA, 1 ug/mL IgG
[13] = target: ptau 187-212 (A187) (human); experiment: alanine-scan peptide ELISA, 1 ug/mL IgG
[14] = target: ptau 187-212 (A212) (human); experiment: alanine-scan peptide ELISA, 1 ug/mL IgG
[15] = target: ptau 187-212 (A191) (human); experiment: alanine-scan peptide ELISA, 1 ug/mL IgG
[16] = target: ptau 187-212 (A188) (human); experiment: alanine-scan peptide ELISA, 1 ug/mL IgG
[17] = target: ptau 187-212 (A190) (human); experiment: alanine-scan peptide ELISA, 1 ug/mL IgG
[18] = target: ptau 187-212 (A204) (human); experiment: alanine-scan peptide ELISA, 1 ug/mL IgG
[19] = target: ptau 187-212 (pS202, pT205; as printed in Table 22) (human); experiment: alanine-scan peptide ELISA, 1 ug/mL IgG
[20] = target: ptau 187-212 (A200) (human); experiment: alanine-scan peptide ELISA, 1 ug/mL IgG
[21] = target: ptau 187-212 (A201) (human); experiment: alanine-scan peptide ELISA, 1 ug/mL IgG
[22] = target: ptau 187-212 (A203) (human); experiment: alanine-scan peptide ELISA, 1 ug/mL IgG
[23] = target: ptau 187-212 (A202) (human); experiment: alanine-scan peptide ELISA, 1 ug/mL IgG
[24] = target: ptau 187-212 (A206) (human); experiment: alanine-scan peptide ELISA, 1 ug/mL IgG
[25] = target: ptau 187-212 (A192) (human); experiment: alanine-scan peptide ELISA, 1 ug/mL IgG
[26] = target: ptau 187-212 (A193) (human); experiment: alanine-scan peptide ELISA, 1 ug/mL IgG
[27] = target: ptau 187-212 (A207) (human); experiment: alanine-scan peptide ELISA, 1 ug/mL IgG
[28] = target: ptau 187-212 (A197) (human); experiment: alanine-scan peptide ELISA, 1 ug/mL IgG
[29] = target: ptau 187-212 (A208) (human); experiment: alanine-scan peptide ELISA, 1 ug/mL IgG
ptau 189-212 (human) = experiment: peptide ELISA, 2 ug/mL IgG
[30] = target: ptau 187-212 (pY197, pT205; as printed in Table 11) (human); experiment: peptide ELISA, 2 ug/mL IgG
ptau 188-212 (human) = experiment: peptide ELISA, 2 ug/mL IgG
[31] = target: ptau 194-212 (pS202, pT205) (human); experiment: peptide ELISA, 2 ug/mL IgG
ptau 188-209 (human) = experiment: peptide ELISA, 2 ug/mL IgG
ptau 192-212 (human) = experiment: peptide ELISA, 2 ug/mL IgG

Sequence of CBTAU-7.1 (antibody) (VH): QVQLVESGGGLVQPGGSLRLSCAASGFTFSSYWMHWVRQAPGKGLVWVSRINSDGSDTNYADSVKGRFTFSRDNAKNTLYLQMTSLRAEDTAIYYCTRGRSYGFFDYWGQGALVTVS
Sequence of CBTAU-7.1 (antibody) (VL): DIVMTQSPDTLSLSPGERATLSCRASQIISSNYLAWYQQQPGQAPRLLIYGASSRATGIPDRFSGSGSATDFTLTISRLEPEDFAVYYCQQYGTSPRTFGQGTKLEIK
Sequence of tau 194-212 (human) (peptide, as listed by the source): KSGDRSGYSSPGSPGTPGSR
Sequence of tau 186-253 (human) (peptide, as listed by the source limits assumed): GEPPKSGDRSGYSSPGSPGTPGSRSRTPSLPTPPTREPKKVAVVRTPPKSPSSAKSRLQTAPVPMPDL

- OD450 (tau 194-212 (human)): < 0.3 od
- EC50 (read off the curve) [1]: 0.1 µg/mL
- OD450 [2]: > 1.5 od
Substance: AT8 monoclonal antibody (Thermo, MN1020)

- OD450 (ptau 188-206 (human)): < 0.3 od
- OD450 (ptau 188-205 (human)): < 0.3 od
- OD450 (ptau 189-206 (human)): < 0.3 od
- OD450 (ptau 192-215 (human)): < 0.3 od
- OD450 (tau 194-212 (human)): < 0.3 od
- OD450 (ptau 189-209 (human)): < 0.3 od
- OD450 (tau 186-253 (human)): < 0.3 od
- OD450 (tau 190-209 (human)): < 0.3 od
- OD450 (ptau 192-209 (human)): < 0.3 od
- OD450 (ptau 192-217 (human)): < 0.3 od
- OD450 [3]: > 1.5 od
- OD450 [4]: 1 to 1.5 od
- OD450 [5]: > 1.5 od
- OD450 [6]: > 1.5 od
- OD450 [7]: > 1.5 od
- OD450 [8]: 1 to 1.5 od
- OD450 [9]: 0.5 to 1 od
- OD450 [10]: > 1.5 od
- OD450 [11]: > 1.5 od
- OD450 [12]: > 1.5 od
- OD450 [13]: 1 to 1.5 od
- OD450 [14]: > 1.5 od
- OD450 [15]: > 1.5 od
- OD450 [16]: 1 to 1.5 od
- OD450 [17]: > 1.5 od
- OD450 [18]: 0.5 to 1 od
- OD450 [19]: > 1.5 od
- OD450 [20]: 1 to 1.5 od
- OD450 [21]: > 1.5 od
- OD450 [22]: > 1.5 od
- OD450 [23]: 1 to 1.5 od
- OD450 [24]: 0.5 to 1 od
- OD450 [25]: > 1.5 od
- OD450 [26]: > 1.5 od
- OD450 [27]: > 1.5 od
- OD450 [28]: > 1.5 od
- OD450 [29]: > 1.5 od
- OD450 [2]: 1 to 1.5 od
- OD450 (ptau 189-212 (human)): 1 to 1.5 od
- OD450 [30]: 0.5 to 1 od
- OD450 (ptau 188-212 (human)): 0.5 to 1 od
- OD450 [31]: 1 to 1.5 od
- OD450 (ptau 188-209 (human)): > 1.5 od
- OD450 (ptau 192-212 (human)): 1 to 1.5 od
Substance: CBTAU-7.1 (antibody)
